This is an account of results in US5851983, “Elastase inhibitory polypeptide and process for production thereof by recombinant gene technology” (Teijin Limited, dated 1998).

Assay [1] addresses T1, Bovine spleen trypsin (Sigma) (bovine, UniProt P00760). The assay can be described thus: enzyme inhibition with Bz-Arg-pNA, Ki by the Henderson method. How it is done:
(§1) To wells of an ELISA 96-well microtiter plate, were added 120 μl of the buffer, 20 μl of a sample solution of (Arg^55-Ala^107) SLPI obtained in Example 25, and 20 μl of the enzyme solution in this order, an the mixture was reacted at 37° C. for 1 hour. Next, 20 μl of the substrate was added to develop at 25° C. Absorption of the developed color was measured at 405 nm. As a control, SLPI was used.

For assay [2], the target named is T2, Polymorphonuclear leukocyte elastase from human sputum (EPC Co.; Funakoshi Yakuhin) (human, UniProt P08246). In words: enzyme inhibition with MeO-Suc-Ala-Ala-Pro-Val-pNA, Ki by the Henderson method. The method, then:
as §1

Assay [3] addresses T2, Polymorphonuclear leukocyte elastase …. Described as above. This is another data set of the same source.
The target of assay [4] is T1, Bovine spleen trypsin (Sigma). In words: enzyme inhibition with Bz-Arg-pNA, Ki by the Henderson method. The method, then:
To wells of an ELISA 96-well microtiter plate, were added 120 μl of the buffer, 20 μl of a sample solution of (Arg^59-Ala^107) SLPI obtained in Example 23, and 20 μl of the enzyme solution in this order, an the mixture was reacted at 37° C. for 1 hour. Next, 20 μl of the substrate was added to develop at 25° C. Absorption of the developed color was measured at 405 nm. As a control, SLPI was used.
This is another data set of the same source.

Assay [5] addresses T2, Polymorphonuclear leukocyte elastase …. The assay can be described thus: enzyme inhibition; method not described.
Assay [6] has as its target T3, Porcine spleen elastase (Sigma) (porcine, UniProt P00772). The assay can be described thus: cell-based or functional assay.
The target of assay [7] is T4, Human cathepsin G (EPC Co., Funakoshi Yakuhin) (human, UniProt P08311).
T4 sequence: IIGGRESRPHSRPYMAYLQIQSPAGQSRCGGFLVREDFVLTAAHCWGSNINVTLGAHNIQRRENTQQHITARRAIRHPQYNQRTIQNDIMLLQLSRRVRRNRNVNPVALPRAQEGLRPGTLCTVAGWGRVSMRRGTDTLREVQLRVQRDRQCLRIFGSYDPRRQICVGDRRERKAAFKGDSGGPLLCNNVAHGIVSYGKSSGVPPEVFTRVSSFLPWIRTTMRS
In words: cell-based or functional assay.

In assay [8] the target is T5, Bovine spleen chymotrypsin (Sigma) (bovine, UniProt P00766). The assay can be described thus: cell-based or functional assay.
In assay [9] the target is T3, Porcine spleen elastase (Sigma). In words: cell-based or functional assay. This is another data set of the same source.
For assay [10], the target named is T4, Human cathepsin G (EPC Co., Funakoshi …). In words: cell-based or functional assay. This is another data set of the same source.
For assay [11], the target named is T5, Bovine spleen chymotrypsin (Sigma). In words: cell-based or functional assay. The source holds these as a separate data set.
The target of assay [12] is T6, Calf pancreatic trypsin (Sigma) (calf (bovine), UniProt P00760). The assay can be described thus: enzyme inhibition with chromogenic substrate, Ki by the Henderson method. How it is done: (§2) To each well of a 96-well ELISA microplate were added 140 μl of the above-mentioned buffer, 20 μl of a test solution, and 20 μl of the enzyme solution, and the mixture was stirred at 37° C. for 30 minutes. Next, 20 μl of the substrate solution was added to the well, the mixture was stirred at 37° C. for one hour to develop same, and the absorbance at 405 nm was measured.
(§3) Moreover, an inhibitory constant Ki of the present (Asn^55-Ala^107) SLPI was calculated on the basis of the above data by a method of Dixon, M. and Webb, E. C. (1979), Enzyme, Longman or a method of Henderson, P. J. F. (1972) Biochem. J., 127, 321–333.

Assay [13] concerns the target T2, Polymorphonuclear leukocyte elastase …. Described as above. The method, then:
as §2, §3

Assay [14] deals with T6, Calf pancreatic trypsin (Sigma). The assay can be described thus: enzyme inhibition with chromogenic substrate, Ki by the Dixon method. How it is done: as §2, §3
Assay [15] concerns the target T2, Polymorphonuclear leukocyte elastase …. The description is as above. How it is done:
as §2, §3

A further assay deals with Human plasma thrombin (human, UniProt P00734). In words: cell-based or functional assay.
For assay [16], the target named is Calf pancreatic chymotrypsin (Sigma) (calf (bovine), UniProt P00766). The assay can be described thus: cell-based or functional assay.
In the next assay the target is Human plasma kallikrein (human, UniProt P03952). The assay can be described thus: cell-based or functional assay.
In the next assay the target is Human plasma plasmin (human, UniProt P00747). The assay can be described thus: cell-based or functional assay.
Assay [17] concerns the target Porcine pancreatic elastase (Sigma) (porcine, UniProt P00772). The assay can be described thus: cell-based or functional assay.
The target in assay [18] is T4, Human cathepsin G (EPC Co., Funakoshi …). The assay can be described thus: cell-based or functional assay. The source holds these as a separate data set.

Where two headings read alike, the source gives them in different places. No end group written: not given here.

B1: Human secretory leukoprotease inhibitor (SLPI) (other)
chain: SGKSFKAGVCPPKKSAQCLRYKKPECQSDWQCPGKKRCCPDTCGIKCLDPVDTPNPTRRKPGKCPVTYGQCLMLNPPNFCEMDGQCKRDLKCCMGMCGKSCVSPVKA
B1: the Ki – broadly, the equilibrium dissociation constant of an inhibitor or competing ligand from its target – in [1] turned out to be 33 nM; in [2], 0.08 nM; in assay [3], 0.08 nM; in assay [4], 33 nM; in assay [5], 0.25 nM. Moreover, the IC50 (in general, the concentration that inhibits the measured activity by half) was 13 µM in [6]; 5.5 nM in assay [7]; 7 nM in [8]; 13 µM in assay [9]; 5.5 nM in [10]; 7 nM in [11].

B2: (Arg^58 -Ala^107) SLPI (other)
chain: RRKPGKCPVTYGQCLMLNPPNFCEMDGQCKRDLKCCMGMCGKSCVSPVKA
On to B2, for which the Ki in assay [1] came out at 1100 nM; in assay [2], 0.09 nM. Moreover, the 50% inhibitory concentration (IC50) in [9] stood at 23 µM; in assay [10] it was 8 nM; in assay [11], 6.8 nM.

B3: (Asn^55 -Ala^107) SLPI fragment polypeptide (other)
chain: NPTRRKPGKCPVTYGQCLMLNPPNFCEMDGQCKRDLKCCMGMCGKSCVSPVKA
modifications: also: intramolecular disulfides in refolded form, pairing not given here
Take B3: the inhibition constant Ki was determined as 20 nM in [12], 0.2 nM in assay [13], 60 nM in assay [14] and 0.03 nM in assay [15]. The “concentration of inhibitory protein which exhibits a 50% inhibition” value is above 2 µM with Human plasma thrombin; 10 nM in assay [16]; above 2 µM with Human plasma kallikrein; above 2 µM with Human plasma plasmin; 200 nM in assay [17].

B4: (Arg^59 -Ala^107) SLPI (other)
chain: RKPGKCPVTYGQCLMLNPPNFCEMDGQCKRDLKCCMGMCGKSCVSPVKA
On to B4, for which the IC50 value in assay [18] is 11 nM. In addition, the values for the Ki in assay [3] and in assay [4] were 0.08 nM and 1100 nM, respectively. Moreover, the half-inhibitory concentration (IC50) in assay [6] came out at 11 µM; in assay [7], 8 nM; in assay [8] it was 5.8 nM.
